Reference: patent publication US20090155285A1 (Eli Lilly, published 2009)

T1: mature human TGF-β3 (human, UniProt P10600 301-412)
T1 sequence: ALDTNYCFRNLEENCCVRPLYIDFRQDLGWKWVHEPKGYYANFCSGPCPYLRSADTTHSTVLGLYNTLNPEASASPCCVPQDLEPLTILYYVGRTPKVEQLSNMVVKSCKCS

T2: mature human TGF-β2 (human, UniProt P61812 303-414)
T2 sequence: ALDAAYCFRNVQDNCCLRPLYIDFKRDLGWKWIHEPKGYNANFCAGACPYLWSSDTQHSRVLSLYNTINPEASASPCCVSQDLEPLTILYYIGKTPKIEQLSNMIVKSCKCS


Legend:
mature human TGF-β1 [1] = biological target: T3, mature human TGF-β1 (human, UniProt P01137 279-390); test: cell-based or functional assay
T3 sequence (P01137 279-390 limits assumed): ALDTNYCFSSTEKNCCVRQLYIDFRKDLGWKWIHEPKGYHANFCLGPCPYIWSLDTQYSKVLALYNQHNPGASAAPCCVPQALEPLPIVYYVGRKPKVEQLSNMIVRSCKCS

mature human TGF-β3 [2] = biological target: T1, mature human TGF-β3; test: cell-based or functional assay
mature human TGF-β2 [3] = biological target: T2, mature human TGF-β2; test: cell-based or functional assay
mature human TGF-β1 [4] = biological target: T3, mature human TGF-β1; test: BIAcore 2000 SPR, antibody captured on Protein A, TGF-β injected
Protocol: (§1) Alternate methods of measuring kinetic constants are known, for example: affinity of an invention antibody for TGF-β1 (R&D Systems, Cat # 240-B/CF), TGF-β2 (RDI, Cat #RDI-1035), and TGF-β3 (RDI, Cat # RDI-1036/CF) is measured by BIAcore® 2000. Binding affinity measurements for full-length monoclonal antibodies of the invention are determined using Biacore. Except as noted, all reagents and materials are purchased from BIAcore® AB (Upsala, Sweden). All measurements made at room temperature. Samples are dissolved in HBS-EP buffer (150 mM sodium chloride, 3 mM EDTA, 0.01% (w/v) surfactant P-20, and 10 mM HEPES, pH 7.4). Recombinant Protein A is immobilized on all four flow cells of a CM4 sensor chip at a level of 400-450 response units (RUs) using an amine coupling kit. Binding is evaluated using multiple analytical cycles. Each cycle is performed at a flow rate of 50 μL/min consisting of the steps: injection of 12 μL of antibody at 0.5 μg/mL, injection of 250 μL of TGF-β1 (starting at 5 nM and using two-fold serial dilutions to 0.13 nM for each cycle, with two injections for each concentration) followed by either a short (5 min) or long (120 min) delay for dissociation, and regeneration using two injections of 50 μL of 10 mM glycine hydrochloride, pH 1.5. Association and dissociation rates per cycle are made by fitting the biosensor data from a simple association model using ClampXP (Center for Biomolecular Interaction Analysis, Univ. of Utah) to extract the kₒₙ and koff rate constants; the equilibrium binding constant Kd is calculated from Kd=koff/kₒₙ.
(§2) When mAbs are measured using the described assay, the results are as stated in Table 2 below.

mature human TGF-β3 [5] = biological target: T1, mature human TGF-β3; test: as above
Protocol: as §1, §2

mature human TGF-β2 [6] = biological target: T2, mature human TGF-β2; test: as above
Protocol: as §1, §2

mature human TGF-β1 [7] = biological target: T3, mature human TGF-β1; test: KinExA 3000, solution phase, antigen-coupled beads
Protocol: (§3) A KinExA 3000 instrument (Sapidyne Inst. Inc.) measures binding kinetics. Briefly, antigen is covalently-coupled to azlactone beads and the binding of an invention free Fab to the beads is detected on the instrument. […] After incubation, free Fab in each equilibrated sample is determined on KinExA 3000 per manufacturer instructions. Kd values are determined using KinExA 3000 software. To measure kₒₙ, individual Fabs at 2 nM are mixed with 0-240 nM of antigen using the injection method according to manufacturer's instructions, and the unbound Fab is detected. The resulting data is used to calculate the kₒₙ with KinExA 3000 software. The koff is calculated using the formula K_{d=k}off/kₒₙ. Affinity data obtained under KinExA© conditions for Fab embodiments binding TGF Beta 1 are shown below in Table 1.

mature human TGF-β1 [8] = biological target: T3, mature human TGF-β1; test: KinExA 3000, calculated from Kd and kon
Protocol: as §3

mature human TGF-β1 [9] = biological target: T3, mature human TGF-β1; test: KinExA 3000, equilibrium in solution
Protocol: as §3

HT-2 cell neutralization assay, IC50 (Mean ng/ml) (mature human TGF-β1 [1]) [ng/mL] | HT-2 cell neutralization assay, IC50 (Mean ng/ml) (mature human TGF-β3 [2]) [ng/mL] | HT-2 cell neutralization assay, IC50 (Mean ng/ml) (mature human TGF-β2 [3]) [ng/mL] | Kd (mature human TGF-β1 [4]) [pM] | koff (mature human TGF-β1 [4]) [s⁻¹] | kon (mature human TGF-β1 [4]) [M⁻¹ s⁻¹] | Kd (mature human TGF-β3 [5]) [pM] | koff (mature human TGF-β3 [5]) [s⁻¹] | kon (mature human TGF-β3 [5]) [M⁻¹ s⁻¹] | Kd (mature human TGF-β2 [6]) [pM] | koff (mature human TGF-β2 [6]) [s⁻¹] | kon (mature human TGF-β2 [6]) [M⁻¹ s⁻¹] | kon (mature human TGF-β1 [7]) [M⁻¹ s⁻¹] | koff (mature human TGF-β1 [8]) [s⁻¹] | Kd (mature human TGF-β1 [9]) [pM] | Binder
215 | 100 | 574 | – | – | – | – | – | – | – | – | – | – | – | – | 1D11.16 (antibody, from another filing, V domains shown) VH: QVQLQQSGPELVRPGASVKLSCKASGYIFITYWMNWVKQRPGQGLEWIGQIFPASGSTNYNEMFEGKATLTVDTSSSTAYMQLSSLTSEDSAVYYCARGDGNYALDAMDYWGQGTSVTVSS VL: DIVLTQSPASLAVSLGQRATISCRASESVDSYGNSFMHWYQQKSGQPPKLLIYLASNLESGVPARFSGSGSRTDFTLTIDPVEADDAATYYCQQNNEDPLTFGAGTKLEIK
0.44 | 5.22 | 6.14 | < 0.2 | 6.71e-06 | > 4e+07 | 0.851 | 1.53e-05 | 1.76e+07 | 0.265 | 6e-06 | 2.42e+07 | – | – | – | mAb 12.4 (antibody, human IgG4 S228P, kappa, V domains shown, Full-length monoclonal antibody, made by linking the Fab to an IgG4 Fc region) VH: QVQLVQSGAEVKKPGASVKVSCKASGYTFTSYWMNWVRQAPGQGLEWMGQIFPALGSTNYGEMFEGRVTMTTDTSTSTAYMELRSLRSDDTAVYYCARGIGNYALDAMDYWGQGTLVTVSS VL: DIQMTQSPSSLSASVGDRVTITCRASESVDWWGNSFMHWYQQKPGKAPKLLIYLASNLESGVPSRFSGSGSGTDFTLTISSLQPEDFATYYCQQNIEDPLTFGGGTKVEIKR
– | – | – | – | – | – | – | – | – | – | – | – | 2.1e+07 | 0.00031 | 15 | Fab 3.A (Fab, V domains shown, The mAb was made by linking the Fab to an IgG4 Fc region, so the mAb's chains are named; The heavy chain entry also holds the Fc, which is not in the Fab) VH: QVQLVQSGAEVKKPGASVKVSCKASGYTFTSYWMNWVRQAPGQGLEWMGQIFPASGSTNYGEMFEGRVTMTTDTSTSTAYMELRSLRSDDTAVYYCARGIGNYALDAMDYWGQGTLVTVSS VL: DIQMTQSPSSLSASVGDRVTITCRASESVDFWGNSFMHWYQQKPGKAPKLLIYLASNLESGVPSRFSGSGSGTDFTLTISSLQPEDFATYYCQQNIEDPLTFGGGTKVEIKR
– | – | – | – | – | – | – | – | – | – | – | – | 3.7e+06 | 3.4e-07 | 0.09 | Fab 12.7 (Fab, V domains shown, The mAb was made by linking the Fab to an IgG4 Fc region, so the mAb's chains are named; The heavy chain entry also holds the Fc, which is not in the Fab) VH: QVQLVQSGAEVKKPGASVKVSCKASGYTFTSEWMNWVRQAPGQGLEWMGQIFPALGSTNYNEMYEGRVTMTTDTSTSTAYMELRSLRSDDTAVYYCARGIGNYALDAMDYWGQGTLVTVSS VL: DIQMTQSPSSLSASVGDRVTITCRASESVDFYGNSFMHWYQQKPGKAPKLLIYLASNLESGVPSRFSGSGSGTDFTLTISSLQPEDFATYYCQQNIEDPLTFGGGTKVEIKR
– | – | – | – | – | – | – | – | – | – | – | – | 3.4e+07 | 5.2e-05 | 1.55 | Fab 12.4 (Fab, V domains shown, The mAb was made by linking the Fab to an IgG4 Fc region, so the mAb's chains are named; The heavy chain entry also holds the Fc, which is not in the Fab) VH: QVQLVQSGAEVKKPGASVKVSCKASGYTFTSYWMNWVRQAPGQGLEWMGQIFPALGSTNYGEMFEGRVTMTTDTSTSTAYMELRSLRSDDTAVYYCARGIGNYALDAMDYWGQGTLVTVSS VL: DIQMTQSPSSLSASVGDRVTITCRASESVDWWGNSFMHWYQQKPGKAPKLLIYLASNLESGVPSRFSGSGSGTDFTLTISSLQPEDFATYYCQQNIEDPLTFGGGTKVEIKR
0.42 | 15.8 | 3.65 | < 0.2 | 9.71e-06 | > 5e+07 | 1.53 | 2.84e-05 | 2.17e+07 | 0.529 | 9.86e-06 | 2.37e+07 | – | – | – | mAb 4.17 (antibody, human IgG4 S228P, kappa, V domains shown, Full-length monoclonal antibody, made by linking the Fab to an IgG4 Fc region) VH: QVQLVQSGAEVKKPGASVKVSCKASGYTFTSYWMNWVRQAPGQGLEWMGQIFPFSGSTNYNEMFEGRVTMTTDTSTSTAYMELRSLRSDDTAVYYCARGIGNYALDAMDYWGQGTLVTVSS VL: DIQMTQSPSSLSASVGDRVTITCRASESVDFWGNSFMHWYQQKPGKAPKLLIYLASNLESGVPSRFSGSGSGTDFTLTISSLQPEDFATYYCQQNAEDPLTFGGGTKVEIKR
0.59 | 6.78 | 3.34 | < 0.2 | 7.93e-06 | > 5e+07 | 0.82 | 1.28e-05 | 1.56e+07 | 0.473 | 1.11e-05 | 2.8e+07 | – | – | – | mAb 12.7 (antibody, human IgG4 S228P, kappa, V domains shown, Full-length monoclonal antibody, made by linking the Fab to an IgG4 Fc region) VH: QVQLVQSGAEVKKPGASVKVSCKASGYTFTSEWMNWVRQAPGQGLEWMGQIFPALGSTNYNEMYEGRVTMTTDTSTSTAYMELRSLRSDDTAVYYCARGIGNYALDAMDYWGQGTLVTVSS VL: DIQMTQSPSSLSASVGDRVTITCRASESVDFYGNSFMHWYQQKPGKAPKLLIYLASNLESGVPSRFSGSGSGTDFTLTISSLQPEDFATYYCQQNIEDPLTFGGGTKVEIKR
– | – | – | < 0.2 | 7.92e-06 | > 5e+07 | 0.54 | 1.12e-05 | 1.85e+07 | 1 | 1.22e-05 | 2.29e+07 | – | – | – | mAb 12.8 (antibody, human IgG4 S228P, kappa, V domains shown, Full-length monoclonal antibody, made by linking the Fab to an IgG4 Fc region) VH: QVQLVQSGAEVKKPGASVKVSCKASGYTFTSYWMNWVRQAPGQGLEWMGQIFPALGSTNYNEMFEGRVTMTTDTSTSTAYMELRSLRSDDTAVYYCARGIGNYALDAMDYWGQGTLVTVSS VL: DIQMTQSPSSLSASVGDRVTITCRASESVDWYGNSFMHWYQQKPGKAPKLLIYYASNLESGVPSRFSGSGSGTDFTLTISSLQPEDFATYYCQQNAEDPLTFGGGTKVEIKR
2.62 | 16.9 | 51.4 | < 2 | 0.000107 | > 5e+07 | 0.926 | 2.38e-05 | 2.9e+07 | < 4 | 0.000218 | > 5e+07 | – | – | – | mAb 3.A (antibody, human IgG4 S228P, kappa, V domains shown, Full-length monoclonal antibody, made by linking the Fab to an IgG4 Fc region) VH: QVQLVQSGAEVKKPGASVKVSCKASGYTFTSYWMNWVRQAPGQGLEWMGQIFPASGSTNYGEMFEGRVTMTTDTSTSTAYMELRSLRSDDTAVYYCARGIGNYALDAMDYWGQGTLVTVSS VL: DIQMTQSPSSLSASVGDRVTITCRASESVDFWGNSFMHWYQQKPGKAPKLLIYLASNLESGVPSRFSGSGSGTDFTLTISSLQPEDFATYYCQQNIEDPLTFGGGTKVEIKR
– | – | – | – | – | – | – | – | – | – | – | – | 2.2e+07 | 6e-06 | 0.28 | Fab 4.17 (Fab, V domains shown, The mAb was made by linking the Fab to an IgG4 Fc region, so the mAb's chains are named; The heavy chain entry also holds the Fc, which is not in the Fab) VH: QVQLVQSGAEVKKPGASVKVSCKASGYTFTSYWMNWVRQAPGQGLEWMGQIFPFSGSTNYNEMFEGRVTMTTDTSTSTAYMELRSLRSDDTAVYYCARGIGNYALDAMDYWGQGTLVTVSS VL: DIQMTQSPSSLSASVGDRVTITCRASESVDFWGNSFMHWYQQKPGKAPKLLIYLASNLESGVPSRFSGSGSGTDFTLTISSLQPEDFATYYCQQNAEDPLTFGGGTKVEIKR
– | – | – | – | – | – | – | – | – | – | – | – | 2.6e+07 | 5.5e-06 | 0.22 | Fab 12.8 (Fab, V domains shown, The mAb was made by linking the Fab to an IgG4 Fc region, so the mAb's chains are named; The heavy chain entry also holds the Fc, which is not in the Fab) VH: QVQLVQSGAEVKKPGASVKVSCKASGYTFTSYWMNWVRQAPGQGLEWMGQIFPALGSTNYNEMFEGRVTMTTDTSTSTAYMELRSLRSDDTAVYYCARGIGNYALDAMDYWGQGTLVTVSS VL: DIQMTQSPSSLSASVGDRVTITCRASESVDWYGNSFMHWYQQKPGKAPKLLIYYASNLESGVPSRFSGSGSGTDFTLTISSLQPEDFATYYCQQNAEDPLTFGGGTKVEIKR
